The text below walks through data of the DeepSol protein solubility set.

The data set is described as follows: soluble on expression in E. coli; label from the status in PepcDB or PDB records.
Consider “SLDDMTEFKNMPKVELHAHLSGSLSPETIKLIMESDETRAEEIMKKYKLEKPENMTGVFDCFPVIHAILRKPEAIRIAIRQTIKEFEEDNCVYLELRTSPKETDFMTYEDYLQVCIESFEAAKHEFPRIKTFLIVSLDRRMPFETAAHILGLIGEAQQRTNVIVGVELSGDPHLDGRRLLKLFVAARRFHGLGITIHLAEVLQNMADVEDYLNLRPDRIGHGTFLHTDPYTEYLTNKYKIPLEICLSSNVYSKTTTNYRNSHFNYWRKRGVPVFICTDDKGVIPGATLTEEYYKAAITFDLSTEELIGINQDALLNSFAYKYNVTDLTETFRKINNNVLD”, for which the “soluble on expression in E. coli” value was “soluble”.

Regarding “MRSLLLLALVSASAYASFDKIKDSIQNPLARGFGDDIAWVKWEDAIETALDTDKPIFLLIHKSWCHACKALKKTFQQSNAKKAFKKLSEHFVMVNTEDDDEPFEEEYRPDGKYIPRLLFLDKNGDLLQEFKNKKAEYKNYAYYYSSPADILNSMKDVLKHFGVDIPEAKRGDKLKPKKPEGKKKEL”, the “soluble on expression in E. coli” value is given as “not soluble”.

Take “MEFKVEDDRISLYADSKRVSWVLYRKHSGEIELLATFTAKGEEGKGYASKVVGEALNYARGFEKIKVSCPYIKSWIEKHGFDRDVEYTKLLEFKEAVEKFNRFHSPEAVAEFMKEEGEVVYVRFTGPFCVSCGVYDYFEDLTQDAEVLDYEEVEDGFIVRYRLL”: the “soluble on expression in E. coli” value was “not soluble”.

Take “MCRHCHFLSAIAPVSGTNKSQPGNKWDMVLLVPFDGSALSKAALTRAMEFADYRDEDITALSVIPDDAAYAREHGWLDADEAFTVEAVADRMREQAESVAPAASFRYEVPEDVSSMASTTTNITRTIREVAHEEEASIVFIGSENAGRVSTPVCSVGSPVSEDPEYDVHIVRHP”: the “soluble on expression in E. coli” value was “not soluble”.

In the case of “AIHAVCVLKGDSPVTGTIHLKEEGDMVTVTGEITGLTPGKHGFHVHEFGDNTNGCTSAGGHFNPHGKEHGAPEDENRHAGDLGNVVAGEDGKAVINMKDKLVKLTGPDSVIGRTLVVHVDEDDLGRGGHEQSKITGNAGGRLACGVIGITKE”, the “soluble on expression in E. coli” value is “soluble”.

“MSLDSNSQSRSSSASSIGSESETGNAVVVFGYREAITKQILAYFAQFGEILEDLESELGDTETMRTPGYFFQQAPNRRRISREHGRTWTKLTYANHSSYLRALREHGTIYCGAAIGCVPYKHELISELSRDTYNSMNDVKQTNSISTNQLTQHNQSEVPKSNQTFETKPTNETERNQIKTPSAFGSDNKGNGSISSGRTKRRLSIKDGSSLFLSGTDNIFSTLDGQPTKKRMINRDRSLIGKISGWLFGWNDLEGHHHHHH”: the “soluble on expression in E. coli” value is “soluble”.

With “GMKEIRIILMGTGNVGLNVLRIIDASNRRRSAFSIKVVGVSDSRSYASGRNLDISSIISNKEKTGRISDRAFSGPEDLMGEAADLLVDCTPASRDGVREYSLYRMAFESGMNVVTANKSGLANKWHDIMDSANQNSKYIRYEATVAGGVPLFSVLDYSILPSKVKRFRGIVSSTINYVIRNMANGRSLRDVVDDAIKKGIAESNPQDDLNGLDAARKSVILVNHIFGTEYTLNDVEYSGVDERSYNANDRLVTEVYVDDRRPVAVSRIISLNKDDFLMSIGMDGLGYQIETDSNGTVNVSDIYDGPYETAGAVVNDILLLSKVQK”, the “soluble on expression in E. coli” value was “soluble”.

With “GVTGISTGFIDLNKKTAGLQPSDLIIVAARPSMGKTTFAMNLCENASLHDIEDHNDLDENGNPRKKPAKPVLIFSLEMPADQIMMRMLASLSRVNQTKIRTGQIHDDEEWAKISSTVAILQERKNIFIDDSAGLTPTELRSRARRIYRENGGLSLIMVDYLQLMRVPNFSDNRTLEIAEISRSLKALAKELEVPVVALSQLNRSLEQRQDKRPVNSDL”, the “soluble on expression in E. coli” value is listed as “not soluble”.

In the case of “MGSDKIHHHHHHMNTRLKDTSGHSPIDPRILDEAAAWLMQLHASTVTDMERNAWEQWRLRSPQHRQAWERAEQLMNKMGGLPPALSMAALTHPGGNNRRAAIKKLALLMTALPASWAAWRVTPWEAWMAEYRTMVSEQREIELADGSQVRLNTATSIDVRFNAVQRLIVLHTGEILIQTAADNAVTPRPFQVLTAEGRLYALGTRFTVRQGEERSHVAVFDGAVAIHPKSGDSGVAQVLHAGNKTVFTAEAIEVSRPADDTDIAWTQGMLLADKMHLTDFTDELSRYRQGIVRCDPVLADLRISGAFPIRDTDRTLAMLQATYPVRIVYRTPYWVTLVPR”, the “soluble on expression in E. coli” value is on record as “not soluble”.

As to “MFLVTGATGDIGRRVIRLLREHNHSVRGFARLTSRYGELEHRGANIFIGDLRREQDIEKACQGVQYIISAHGSDNDALTLDYRANIALIDQAKANGVQHFVFISVLGAERGYEDAPVFKAKRAVENYLAASGLNYTILRPAGLASNLLPLAERFRETGLYLLIGDPKNRTSIVSTDDLARIVVDSVTVPEARNQIFSVGGPEILLREDIPQIFSHIFKKEPIVVNSPLLVIDGLRGVLGLINPEAQQALGTFRTLLSNEFFCRKDEIAKLEQTFNFPLETLESFLRRYLAVLEHHHHHH”, the “soluble on expression in E. coli” value was “not soluble”.

Consider “MSSGNILWGSQNPIVFKNSFGVSNADTGSQDDLSQQNPFAEGYGVLLILLMVIQAIANNKFIEVQKNAERARNTQEKSNEMDEVIAKAAKGDAKTKEEVPEDVIKYMRDNGILIDGMTIDDYMAKYGDHGKLDKGGLQAIKAALDNDANRNTDLMSQGQITIQKMSQELNAVLTQLTGLISKWGEISSMIAQKTYS”, for which the “soluble on expression in E. coli” value is reported as “not soluble”.

For “MGSDKIHHHHHHMTEGWDALDAELEQWAAAGLRLPLWWRDDDAVTPTDALTRLEAMATRLDLPVHLAVIPKAAEDALAQHVSQSSHLIPVVHGWAHVNHANPDKKTCEFPSTRPVDEALTDAEQGVERLKHLFGARLQPMFVPPWNRISPAMLPWLAGLGFAAISTYGPRKRTQAASGLVQINTHIDPIDWKGGRGLMPEAQILQKLVANLQARRSGQQDNAEPLGLLTHHLVHTDEVWEFCDTLLRRLLEGPAHPWRFNERIN”, the “soluble on expression in E. coli” value is reported as “not soluble”.

With “MDFKQRHTWLKIASCKSISAKKRASIWQKLTEFDQYEMTTQTFAESFFPVDKLAQILMELETAEACFFDDVTLIWILDDAYPALLREIYEAPPILFCKGNIDLLQQQAIAIVGTRQMSEYGRKACMKIASELAENKLTIVSGMAIGIDSTAHRATLNKQGATIAVLGSGVNKVYPKKNELLAKEIVKEGLLLSEYLPDEEAKRWHFPERNRIISGLAIGTVIIEAAERSGSLITADIALEQNRQVFAVPGNIFIDTWQGTNYLIQEGAKLVMNSNNIIEEFIQIKP”, the “soluble on expression in E. coli” value is given as “not soluble”.

In the case of “GMTSPVAVIARFMPRPDARSALRALLDAMITPTRAEDGCRSYDLYESADGGELVLFERYRSRIALDEHRGSPHYLNYRAQVGELLTRPVAVTVLAPLDEASA”, the “soluble on expression in E. coli” value is “soluble”.

For “MAHHHHHHMEPFTWLPAERYFHPLLNSIGAYQRYTYSLRAVCDAQRQKLLPGGDIEQNPGPIAVLQMNVSCLTPSKLATLMAQGADIIAIQETWKSSEQIASMHTGDHVLHAQSRIGKGSGVAVLVRKTLRSKRVPLTIPQHDTSLEVVVVQVALDQNRDLIVASTYMRPPPQVTQSFRRLVNCLPASSPLLLCGDFNMHHPQWEPFLESSPSEVAAEFLELCTDAGLTLVNTPGDITYARGTRERSCIDLTWSKHLTVSDCSASVSPLSDHYMLTFTLHQAFMDTIPSAPPSAPRTFYS”, the “soluble on expression in E. coli” value was “not soluble”.

“MGSDKIHHHHHHMNKPERPSHLAAARREPTHYLTADERAAKGRALRDTVPRGSQSGWQAPEDRRDPIELLNESNAGRILDLVPIRYGRMAASPFAFYRGSASLMAADLATTPSSGIRVQACGDAHLMNFGGFATPERNIIFDINDLDETLPAPFEWDLKRLAASLAIAAEHLALPKSDAARVVTDVVREYRERMFNYGWMRALDVWYDRIDLQKYEDRSGDPEIVAAARKRLAQRIEGERRKTVPDYLYPKLVSEEGAKPRIKDEPPLIFHPTEELAPGMGSDYAQAIASYRSSLAEHVRVLFDRFHFFDMAIKVVGVGSVGTMCGVGLFLAADNDPLFLQVKEARASVLEPYAGKSLHANHGERVIAGQRLMQAASDVFLGWTRGENGRDFYLRQLRDMKLSAVIEDWDTGMLRQYGRMCAHALARAHARSGDAAMMAGYMGSGQAFDDAICEFATEYCSQNRSDFRTFVAAIREGRIEARLEAN”: the “soluble on expression in E. coli” value is reported as “not soluble”.
